Measurements: patent US20230265151A1, “GIP/GLP1 CO-AGONIST COMPOUNDS” (priority 2020, published 2023)
Substitutions are numbered along the chain they refer to.

T1: human GIP receptor (human, UniProt P48546 22-466)
T1 sequence (looked up): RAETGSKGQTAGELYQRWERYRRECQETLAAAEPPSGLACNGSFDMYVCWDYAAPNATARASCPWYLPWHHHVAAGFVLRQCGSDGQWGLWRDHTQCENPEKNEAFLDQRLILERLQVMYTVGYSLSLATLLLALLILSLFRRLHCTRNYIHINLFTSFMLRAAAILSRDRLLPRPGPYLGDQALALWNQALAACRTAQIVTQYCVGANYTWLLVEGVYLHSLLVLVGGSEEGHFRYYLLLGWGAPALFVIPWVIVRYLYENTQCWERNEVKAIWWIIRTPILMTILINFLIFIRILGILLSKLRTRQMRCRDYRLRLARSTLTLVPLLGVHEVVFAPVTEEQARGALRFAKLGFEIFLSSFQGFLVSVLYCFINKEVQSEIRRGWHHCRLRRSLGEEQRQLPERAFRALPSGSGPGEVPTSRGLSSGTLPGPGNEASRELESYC

T2: human GIP receptor (human, UniProt P48546 22-466)
T2 construct: whole, on cells; also called hGIPR; human glucose-dependent insulinotropic polypeptide receptor
T2 sequence (looked up): T1 sequence (looked up)

B1: Example 141 (peptide)
peptide: YXEGTXTSDXSIXLDXKAQXEFIXXLIEGGPSSGAPPPSK
modifications: Aib2, αMeF(2F)6, 4Pal10, αMeL13, Orn16, Aib20, D-Glu24, αMeY25, K17 and K40: K(AEEA2-(γ-Glu)-CO-(CH2)10-CH3), C-terminal NH2
B2: Example 139 (peptide)
peptide: YXEGTXTSDXSIXLDXKAQXEFIXXLIKGGPSSGAPPPS
modifications: Aib2, αMeF(2F)6, 4Pal10, αMeL13, Orn16, Aib20, D-Glu24, αMeY25, K17 and K28: K(AEEA2-(γ-Glu)-CO-(CH2)10-CH3), C-terminal NH2
B3: Example 17 (peptide)
peptide: B2 peptide
modifications: Aib2, αMeF(2F)6, 4Pal10, αMeL13, Orn16, Aib20, D-Glu24, αMeY25, K17 and K28: K(AEEA2-(γ-Glu)-CO-(CH2)12-CO2H), C-terminal NH2
B4: Example 16 (peptide)
peptide: B2 peptide with X24K, K28E
modifications: Aib2, αMeF(2F)6, 4Pal10, αMeL13, Orn16, Aib20, αMeY25, K17 and K24: K(AEEA2-(γ-Glu)-CO-(CH2)12-CO2H), C-terminal NH2
B5: Example 140 (peptide)
peptide: B2 peptide with K28E, G30K
modifications: Aib2, αMeF(2F)6, 4Pal10, αMeL13, Orn16, Aib20, D-Glu24, αMeY25, K17 and K30: K(AEEA2-(γ-Glu)-CO-(CH2)10-CH3), C-terminal NH2
B6: Y-Aib-EGT-αMeF(2F)-TSD-4Pal-SI-αMeL-LD-Orn-K((γ-Glu)-(2-[2-(2-Amino-ethoxy)-ethoxy]-acetyl)2-CO-(CH2)12-CO2H)AQ-Aib-EFI-(D-Glu)-αMeY-LIEGGK((γ-Glu)-(2-[2-(2-Ami … (peptide)
peptide: B2 peptide with K28E, P31K
modifications: Aib2, αMeF(2F)6, 4Pal10, αMeL13, Orn16, K17(Z1), Aib20, D-Glu24, αMeY25, K31(Z1), C-term NH2; Z1=(γ-Glu)-AEEA2-CO-(CH2)12-CO2H
B7: Example 149 (peptide)
peptide: B2 peptide with K28E, P31K
modifications: Aib2, αMeF(2F)6, 4Pal10, αMeL13, Orn16, Orn20, D-Glu24, αMeY25, K17 and K31: K(AEEA2-(γ-Glu)-CO-(CH2)12-CO2H), C-terminal NH2
B8: Y-Aib-EGT-αMeF(2F)-TSD-4Pal-SI-αMeL-LD-Orn-K((2-[2-(2-Amino-ethoxy)-ethoxy]-acetyl)2-(εK)-(γ-Glu)-CO-(CH2)12-CO2H)AQ-Aib-EFI-(D-Glu)-αMeY-LIEGGK((2-[2-(2-Amino- … (peptide)
peptide: B2 peptide with K28E, P31K
modifications: Aib2, αMeF(2F)6, 4Pal10, αMeL13, Orn16, K17(Z1), Aib20, D-Glu24, αMeY25, K31(Z1), C-term NH2; Z1=AEEA2-(εK)-(γ-Glu)-CO-(CH2)12-CO2H
B9: Example 18 (peptide)
peptide: B2 peptide with K28E, G30K
modifications: Aib2, αMeF(2F)6, 4Pal10, αMeL13, Orn16, Aib20, D-Glu24, αMeY25, K17 and K30: K(AEEA2-(γ-Glu)-CO-(CH2)12-CO2H), C-terminal NH2
B10: Example 152 (peptide)
peptide: B2 peptide with K28E, G30X, P31K
modifications: Aib2, αMeF(2F)6, 4Pal10, αMeL13, Orn16, Aib20, D-Glu24, αMeY25, Orn30, K17 and K31: K(AEEA2-(γ-Glu)-CO-(CH2)12-CO2H), C-terminal NH2
B11: Example 151 (peptide)
peptide: B2 peptide with K28X, P31K
modifications: Aib2, αMeF(2F)6, 4Pal10, αMeL13, Orn16, Aib20, D-Glu24, αMeY25, Orn28, K17 and K31: K(AEEA2-(γ-Glu)-CO-(CH2)12-CO2H), C-terminal NH2
B12: Y-Aib-EGT-αMeF(2F)-TSD-4Pal-SI-αMeL-LD-Orn-K((2-[2-(2-Amino-ethoxy)-ethoxy]-acetyl)3-(γ-Glu)-CO-(CH2)12-CO2H)AQ-Aib-EFI-(D-Glu)-αMeY-LIEGGK((2-[2-(2-Amino-ethox … (peptide)
peptide: B2 peptide with K28E, P31K
modifications: Aib2, αMeF(2F)6, 4Pal10, αMeL13, Orn16, K17(Z1), Aib20, D-Glu24, αMeY25, K31(Z1), C-term NH2; Z1=AEEA3-(γ-Glu)-CO-(CH2)12-CO2H
B13: Example 143 (peptide)
peptide: B2 peptide with K28E, P31K
modifications: Aib2, αMeF(2F)6, 2FA10, αMeL13, Orn16, Aib20, D-Glu24, αMeY25, K17 and K31: K(AEEA2-(γ-Glu)-CO-(CH2)12-CO2H), C-terminal NH2
B14: Example 154 (peptide)
peptide: B2 peptide with K28E, P31K, S39X
modifications: Aib2, αMeF(2F)6, 4Pal10, αMeL13, Orn16, Aib20, D-Glu24, αMeY25, Orn39, K17 and K31: K(AEEA2-(γ-Glu)-CO-(CH2)12-CO2H), C-terminal NH2
B15: Example 145 (peptide)
peptide: B2 peptide with K28E, P31K
modifications: Aib2, αMeF(2F)6, 2TA10, αMeL13, Orn16, Aib20, D-Glu24, αMeY25, K17 and K31: K(AEEA2-(γ-Glu)-CO-(CH2)12-CO2H), C-terminal NH2
B16: Y-Aib-EGT-αMeF-TSD-4Pal-SI-αMeL-LD-Orn-K((2-[2-(2-Amino-ethoxy)-ethoxy]-acetyl)2-(γ-Glu)-CO-(CH2)12-CO2H)AQ-Aib-EFI-(D-Glu)-αMeY-LIEGGK((2-[2-(2-Amino-ethoxy)-e … (peptide)
peptide: B2 peptide with K28E, P31K
modifications: Aib2, αMeF6, 4Pal10, αMeL13, Orn16, K17(Z1), Aib20, D-Glu24, αMeY25, K31(Z1), C-term NH2; Z1=AEEA2-(γ-Glu)-CO-(CH2)12-CO2H
B17: Y-Aib-EGT-αMeF(2F)-TSD-4Pal-SI-αMeL-LD-Orn-K((2-[2-(2-Amino-ethoxy)-ethoxy]-acetyl)2-(γ-Glu)-CO-(CH2)12-CO2H)AQ-Aib-EFI-(D-Glu)-αMeY-LIEGGK((2-[2-(2-Amino-ethox … (peptide)
peptide: B2 peptide with K28E, P31K
modifications: Aib2, αMeF(2F)6, 4Pal10, αMeL13, Orn16, K17(Z1), Aib20, D-Glu24, αMeY25, K31(Z1), C-term NH2; Z1=AEEA2-(γ-Glu)-CO-(CH2)12-CO2H

How the values were obtained:
human glucagon receptor = human glucagon receptor (human, UniProt P47871 26-477); test: cell-based or functional assay
human GLP-1 receptor [1] = biological target: human GLP-1 receptor (human, UniProt P43220 24-463); test: cell-based or functional assay
human GIP receptor [2] = biological target: T1, human GIP receptor; test: cell-based or functional assay
human GLP-1 receptor [3] = biological target: T3, human GLP-1 receptor (human, UniProt P43220 24-463); test: SPA competition vs [125I]-GLP-1, hGLP-1R membranes
T3 construct: whole, on cells; also called hGLP-1R; human glucagon-like peptide-1 receptor
Method: The binding buffer contains 25 mM HEPES, pH 7.4, 2.5 mM CaCl₂, 1 mM MgCl₂, 0.1% (w/v) bacitracin, 0.003% (w/v) TWEEN®-20, and Roche Complete™ Protease Inhibitors without EDTA.
(§1) Data are analyzed using four-parameter (curve maximum, curve minimum, IC₅₀, Hill slope) nonlinear regression routines (Genedata Screener, version 12.0.4, Genedata AG, Basal, Switzerland). […] Values for Kᵢ are reported as the geometric mean, with error expressed as the standard error of the mean (SEM) and n is equal to the number of independent replicates (determined in assays performed on different days). Geometric Means are calculated as follows: […]

human GIP receptor [4] = biological target: T2, human GIP receptor; test: SPA competition vs [125I]-GIP, hGIPR membranes
Method: The binding buffer contains 25 mM HEPES, pH 7.4, 2.5 mM CaCl₂, 1 mM MgCl₂, 0.1% (w/v) bacitracin, 0.003% (w/v) TWEEN®-20, and Roche Complete™ Protease Inhibitors without EDTA. […] Plates are sealed and mixed on a plate shaker (setting 6) for 1 minute and read with a PerkinElmer Trilux MicroBeta® scintillation counter after 2.5 to 12 hours of incubation/settling time at room temperature.
as §1

| Binder | EC50, cAMP (human glucagon receptor) | EC50, cAMP (human GLP-1 receptor [1]) | EC50, cAMP (human GIP receptor [2]) | Emax, cAMP (human GIP receptor [2]) | Emax, cAMP (human GLP-1 receptor [1]) | Ki (human GLP-1 receptor [3]) | Ki (human GIP receptor [4]) |
| --- | --- | --- | --- | --- | --- | --- | --- |
| B1 | > 9950 nM | 0.0693 nM | 0.00723 nM | 98.8% |  |  |  |
| B2 | > 9950 nM | 0.141 nM | 0.0108 nM |  | 111% |  |  |
| B3 | > 9950 nM | 1.57 nM | 0.0129 nM |  |  |  |  |
| B4 | > 9950 nM | 0.245 nM | 0.0113 nM |  |  |  |  |
| B5 | > 9950 nM | 0.131 nM | 0.0121 nM | 98.5% |  |  |  |
| B6 |  |  |  |  |  | 2.06 nM | 0.108 nM |
| B7 | > 9950 nM | 1.5 nM | 0.0791 nM |  |  |  |  |
| B8 |  |  |  |  |  | 2.81 nM | 0.131 nM |
| B9 | > 9950 nM | 5.06 nM | 0.0226 nM | 97.1% |  |  |  |
| B10 | > 9950 nM | 3.91 nM | 0.0416 nM | 97.9% |  |  |  |
| B11 | > 9950 nM | 0.546 nM | 0.0197 nM |  |  |  |  |
| B12 |  |  |  |  |  | 2.66 nM | 0.0653 nM |
| B13 | > 9950 nM | 0.512 nM | 0.022 nM |  |  |  |  |
| B14 | > 9950 nM | 1.69 nM | 0.0299 nM | 96.6% |  |  |  |
| B15 | > 9950 nM | 0.555 nM | 0.0286 nM | 74.8% |  |  |  |
| B16 |  |  |  |  |  | 3.08 nM | 0.0595 nM |
| B17 |  |  |  |  |  | 2.33 nM | 0.088 nM |
